Measured values reported in patent US20220372114A1 (published 2022).

The binders below were run against SARS-CoV-2 (WIV02 isolate) prefusion stabilized spike trimer protein (UniProt P0DTC2 14-1213) (assay: ELISA).

Row | Binder | IC50 [nM]
1 | 1-L10-A (antibody, V domains shown) VH: EVKLEESGGGLVQPGGSMKLSCVASGFTFNNYWMNWVRQSPEKGLEWVAQMRLKSDNYATHYAESVKGRFTISRDDSKSSVYLQMNNLRAEDTGIYYCIEGYWTYWGQGTLVTVSA VL: QIVLTQSPAIMSASLGERVTMTCTASSSVSSSYLHWYQQKPGSSPKLWIYSTSNLASGVPARFSGNGSGTSYSLTISSMEAEDAATYYCLQYHRSPPYTFGGGTKLEIK | 8.65
2 | 9-F6-A (antibody, V domains shown) VH: EVQLQQSGPELVKPGASVKMSCKASGYTFTSYIMHWVKQKPGQGLEWIGYILPYNDGTKYNEKFKGKATLTSDKSSSTAYMELRSLTSEDSAVYYCARWGYSNFLDSWGQGTTLTVSS VL: DIQMTQTTSSLSASLGDRVTISCRASQDINNYLNWYQQKPDGTVKLLIYYTSRLHSGVPSRFSGSGSGTDYSLTIRNLEQEDIATYFCQQGNTLPPTFGGGTKLEIK | 16.7
3 | 8-H5-A (antibody, V domains shown) VH: QVTLKESGPGILQSSQTLSLTCSLSGFSLSTSGMGVSWVRQPSGKGLEWLAHIYWDDDKRYTPSLKSRLTISTDSSRKQVFLKITSVDTADTATYYCARRDLHDYDGWFAYWGQGTLVTVSA VL: DIVMTQSQKFMSTAVGDRVSVTCKASQNVGTNVAWYQQKPGQSPKALIYSASFRYSGVPDRFSGSGSGTDFTLTISNVQSEDLAEYFCQQYNSYPLTFGSGTKLEIK | 12.8
4 | 6-O12-A (antibody, V domains shown) VH: QVQLQQPGTELVKPGASVKLSCKASGYTFTSYWMHWVKQRPGQGLEWIGNINPSNGGTNYNEKFRSKATLTVDKSSSTAYMQLSSLTSEDSAVYYCARLGWFLPLGSWGQGTTLTVSS VL: QIVLTQSPAIMSASLGEVITLTCSASSSVSYMHWYQQKSGTSPKLLIYSTSNLASGVPSRFSGSGSGTFYSLTISSVEAEDAADYYCHQWSGYMYTFGGGTKLEIK | 7.62
5 | 3-P7-A (antibody, V domains shown) VH: QAYLQQSGAELVRPGASVKMSCKASGYTFTSYSMHWVKQTPRQGLEWIGAIYPGNDDTSYNQKFKGKATLTVDKSSSTAYMQLSSLTSEDSAVYFCTRDYTNYPFDYWGQGTTLTVSS VL: DIVLTQSPASLPVSLGQRATISCRASKSVSTSGYSYMHWYQQRPGQPPKLLIYLASNLESGVPARFSASGSGTDFTLNIHPVEEEDAATYYCQHSRELPPTFGGGTKVEIK | 8.86
6 | 9-K4-A (antibody, V domains shown) VH: QAYLQQSGAELVRPGASVKMSCKASGYTFPNYSFHWVKQTPRQGLEWIGAIYPGNDDTSYNQRFKGKATLTVDKSSSTAYMQLSSLTSEDSAVYFCARDYSNYPFDCWGQGTTLTVSS VL: DIVLTQSPASLAVSLGQRATISCRASKSVSTSGYSYMHWYQQKPGQPPKLLIYLASNLESGVPARFSGSGSGTDFTLNIHPVEEEDAATYYCQHSRELPPTFGGGTKLEIK | 72.6
7 | 2-G20-A (antibody, V domains shown) VH: EVQLQQSGPELVKPGASVKMSCKASGYTFPSYVLHWVKQKPGQGLEWIGYIYPYNDGTNYNEKFKGKATLTSDKSSSTAYMELSSLTSEDSAVYYCARGDYGDSAWFPYWGQGTLVTVSA VL: DIVLTQSPASLAVSLGQRATISCRASKSVSTSGYSYMHWYQQKPGQPPKLLIYLASNLKSGVPARFSGGGSGTDFTLNIHPVEEEDAATYYCQLSRELPWTFGGGTKLEIK | 18.3
8 | 10-O24-A (antibody, V domains shown) VH: QAYLQQSGAELVRPGASVKMSCKASGYTFTSYSMHWVKQTPRQGLEWIGAIYPGNDDTSYNQKFKGKATLTVDRSSSTAYMQLSSLTSEDSAVYFCTRDYSNYPFDYWGQGTTLTVSS VL: DIVLTQSPASLAVFLGQRATISCRASKSVSTSGYSYMHWYQQRPGQPPKLLIYLASNLESGVPARFSGSGSGTDFTLNIHPVEEEDAATYYCQHSRELPPTFGGGTKLEIK | 5.84
9 | 2-H7-A (antibody, V domains shown) VH: QAYLQQSGAELVRPGASVKMSCKASGYTFTGYTMHWVKQTPRQGLEWIGAIYPENGDTSYNQKFKGKATLTVDKSSSTAYMQLSSLTSEDSAVYFCARDGYDVLYGMDYWGQGTSVTVSS VL: DIVLTQSPASLAVSLGQRATISCRASKSVSTSGYSYMHWYQQKPGQPPKLLIYLASNLESGVPARFSGSGSGTDFTLNIHPVEEEDAATYYCQHSRELPWTFGGGTKLDIK | 7.21
10 | 4-L4-A (antibody, V domains shown) VH: QAYLQQSGAELVRPGASVKMSCKASGYTFTSYTVHWVKQTPRQGLEWIGGIYPGNVDTSYNQNFKGKATLTVDKSSSTAYMQLSSLTSEDSAVYFCARDGYYAMDYWGQGTSVTVSS VL: not shown | 8.34
11 | 2-O12-A (antibody, V domains shown) VH: EVQLQQSGPELVKPGASVKISCKASGYTFTDYYMNWVKQSHGKSLEWIGDINSNNGGTTYDQKFKGKATLTVDRSSSTAYMELRSLTSEDSAVYYCARRGDGHFGGFTYWGQGTLVTVSA VL: not shown | 14.9
12 | 3-E2-A (antibody, V domains shown) VH: EVQLQQSGPELVKPGASVKISCKASGYTFTDYYMNWVKQSHGKSLEWIGDINPNNGGTSYTQKFKGKATLTVDKSSSKAYMELRSLTSEDSAVYYCARRGDGHYGGFTYWGQGTLVTVSA VL: not shown | 18.4
13 | 8-L17-A (antibody, V domains shown) VH: EVQLVESGGGLVQPKGSLKLSCAASGFTFNTYAMHWVRQAPGKGLEWVARIRSKSSNYARYYADSVKDRFTISRDDSQSMLYLQMNNLKTEDTAMYYCVRDHDYYGSSYWFAYWGQGTLVTVSA VL: DVVMTQTPLSLPVSLGDQASISCRSSQSLVHNNGNTYLHWYLQKPGQSPKLLIYKVSNRFSGVPDRFSGSGSGTDFTLKISRVEAEDLGVYFCSQSTHVPWTFGGGTKLEIK | 60.8
14 | 8-H3-A (antibody, V domains shown) VH: EVQLVESGGGLVQPKGSLKLSCAASGFTFNTYAMHWVRQAPGKGLEWVARIRSKSSNYATYYADSVKDRFTISRDDSQSMLYLQMNNLKTEDTAMYYCVRDHDYYGSSYWFTYWGQGTLVTVSA VL: DVVMTQTPLSLPVSLGDQASISCRSSQSLVHDNGNTYLHWFLQKPGQSPKLLIYKVSNRFSGVPDRFSGSGSGTDFTLKISRVETEDLGVYFCSQSTHVPWTFGGGTKLEIK | 19.4
15 | 4-M3-A (antibody, V domains shown) VH: EVQLQQSGPELVKPGDSVKISCKASGYSFTGYFMNWVMQSHGKSLEWIGRINPNNGETFYNQKFKGKATLTVDKSSDTAHMELRSLTSEDSAVYYCARGGTGTGWGQGTTLTVSS VL: DILMTQSPSSMSVSLGDTVSITCHASQGISSNIGWLQQKPGKSFKGLIYYGTNLEDGVPSRFSGSGSGADYSLTISSLESEDLADYYCIQYAQFPYTFGGGTKLEIK | 7.36
16 | 4-N22-A (antibody, V domains shown) VH: QVQLQQPGTELVKPGASVKLSCKASGYTFTNYWMYWVKQRPGQGLDWIGNINPSNGGTNYNEKFKSKATLTVDKSSSTAYMQLSSLTSEDSAVYYCARETGNYWGQGTTLTVSS VL: DILMTQSPSSMSVSLGDTVSISCHASQGISSNIGWLQQKPGKSFKGLIYHGTNLEDGVPSRFSGSGSGADYSLTISSLESEDFADYYCVQYAQFPYTFGGGTKLEIK | 4.93

These binders were tested against SARS-CoV-1 Spike (SARS-CoV-1, UniProt P59594 14-1195) (assay: ELISA).

Row | Binder | IC50 [nM]
17 | 1-L10-A (antibody, V domains shown) VH: EVKLEESGGGLVQPGGSMKLSCVASGFTFNNYWMNWVRQSPEKGLEWVAQMRLKSDNYATHYAESVKGRFTISRDDSKSSVYLQMNNLRAEDTGIYYCIEGYWTYWGQGTLVTVSA VL: QIVLTQSPAIMSASLGERVTMTCTASSSVSSSYLHWYQQKPGSSPKLWIYSTSNLASGVPARFSGNGSGTSYSLTISSMEAEDAATYYCLQYHRSPPYTFGGGTKLEIK | 7.5
18 | 1-B11-A (antibody, V domains shown) VH: QVQLQQSGPELVKPGASVKISCKASGYTFTDHYINWVKQRPGQGLEWIGWIFPGSGSTYYNEQFKGKATLTVDKSSNTAYMLLSSLTSEDSAVYFCARSGGLRLGFAYWGQGTLVTVSA VL: DIQMTQTTSSLSASLGDRVTISCRASQDISNYLNWYQQKPDGTVKLLIYYTSRLHSGVPSRFSGSGSGTDYSLTISNLEQEDISTYFCQQVNTLPYTFGGGTKLEIK | 20.9
19 | 9-F6-A (antibody, V domains shown) VH: EVQLQQSGPELVKPGASVKMSCKASGYTFTSYIMHWVKQKPGQGLEWIGYILPYNDGTKYNEKFKGKATLTSDKSSSTAYMELRSLTSEDSAVYYCARWGYSNFLDSWGQGTTLTVSS VL: DIQMTQTTSSLSASLGDRVTISCRASQDINNYLNWYQQKPDGTVKLLIYYTSRLHSGVPSRFSGSGSGTDYSLTIRNLEQEDIATYFCQQGNTLPPTFGGGTKLEIK | 5.55
20 | 10-B13-A (antibody, V domains shown) VH: QVQLQQSGAELVKPGASVKISCKASGYAFSNYWMNWVKQRPGKGLEWIGQIYPGDGDTNYNGNFKGKATLTADKSSSTAYIQLSSLTSEDSAVYFCGRGFIATVVEVFDHWGLGTTLTVSS VL: DIQMTQTTSSLSASLGDRVTISCRASQDISNYLNWYQQKPDGTVKLLIYYTSRLQSGVPSRFSGSGTGTDYSLTISNLEQEDIATYFCQQGNTLPWTFGGGTKLEIK | 19.4
21 | 6-O12-A (antibody, V domains shown) VH: QVQLQQPGTELVKPGASVKLSCKASGYTFTSYWMHWVKQRPGQGLEWIGNINPSNGGTNYNEKFRSKATLTVDKSSSTAYMQLSSLTSEDSAVYYCARLGWFLPLGSWGQGTTLTVSS VL: QIVLTQSPAIMSASLGEVITLTCSASSSVSYMHWYQQKSGTSPKLLIYSTSNLASGVPSRFSGSGSGTFYSLTISSVEAEDAADYYCHQWSGYMYTFGGGTKLEIK | 5.4
22 | 2-G20-A (antibody, V domains shown) VH: EVQLQQSGPELVKPGASVKMSCKASGYTFPSYVLHWVKQKPGQGLEWIGYIYPYNDGTNYNEKFKGKATLTSDKSSSTAYMELSSLTSEDSAVYYCARGDYGDSAWFPYWGQGTLVTVSA VL: DIVLTQSPASLAVSLGQRATISCRASKSVSTSGYSYMHWYQQKPGQPPKLLIYLASNLKSGVPARFSGGGSGTDFTLNIHPVEEEDAATYYCQLSRELPWTFGGGTKLEIK | 6.65
23 | 8-A17-A (antibody, V domains shown) VH: QVQLKESGPGLVAPSQSLSITCTVSGFSLTSYAISWVRQPPGKGLEWLGVVWPGGGTNYNSALKSRLSINKDNSKSQVFLKMNSLQTDDTGRYYCARTGYHFDYWGQGTTLTVSS VL: QIVLTQSPAIMSASPGEKVTMTCSVSSSVSYMHWYQQKSGTSPKRWIYDTSKLASGVPARFSGSGSGTSYSLTISSMEAEDAATYYCQQWSSNPPMYTFGGGTKLEIK | 5.1
24 | 2-P2-A (antibody, V domains shown) VH: EVQLQQSGAELVRPGSSVKMSCKTSGYTFTSYGINWVKQRPGQGLEWIGYIYIGNGYTEYNEKFKGKATLTSDTSSSTAYMQLSSLTSEDSAIYFCARGGVDYWGQGTTLTVSS VL: DVLMTQTPLSLPVSLGDQASISCRSSQSIVHSNGNTYLEWYLQKPGQSPKLLIYKVSNRFSGVPDRFSGSGSGTDFTLKISRVEAEDLGVYYCFQGSHVPYTFGGGTKLEIK | 17.9
